In US20080301824A1:

Tests used:
[1] = molecular target: GAL4 binding domain-parkin(1-465) fusion encoded by pGBT9-parkin(1-465) (UniProt P04386); experiment: cell-based or functional assay
[2] = molecular target: GFP-syt11 (GFP-tagged full-length human synaptotagmin XI) (human) [GFP: P42212]; experiment: co-IP with anti-HA agarose from HEK293 cells, anti-GFP blot

Row | Substance | β-galactosidase activity in yeast two-hybrid liquid assay, against pGAD10-hsyt11AB with pGBT9 vector control [1] | fold less interaction than parkinC418R [2]
1 | GAL4 activation domain-hsyt11AB fusion encoded by pGAD10-hsyt11AB (human synaptotagmin 11, domains C2A and C2B) (from UniProt Q9BT88 157-431) | 20 fold | –
2 | HA-tagged parkin with missense mutation C289G (from UniProt O60260 1-465) (enzyme) | – | 2.5 fold less
